For the assay, the target named is proliferating cell nuclear antigen (PCNA) (human (endogenous in HAP1)) (UniProt P12004). Kind of assay: co-IP; Dynabeads Protein A cross-linked (BS3) with α-PCNA (PC10) or α-ENO1 (ab227978); 2 mg HAP1 cytosolic cell extract, 4 °C overnight; washes with 600 mM NaCl; western blot; both directions. (A western blot detects proteins with antibodies after separation by electrophoresis.)
Sequence of UniProt P12004 (P12004 whole entry): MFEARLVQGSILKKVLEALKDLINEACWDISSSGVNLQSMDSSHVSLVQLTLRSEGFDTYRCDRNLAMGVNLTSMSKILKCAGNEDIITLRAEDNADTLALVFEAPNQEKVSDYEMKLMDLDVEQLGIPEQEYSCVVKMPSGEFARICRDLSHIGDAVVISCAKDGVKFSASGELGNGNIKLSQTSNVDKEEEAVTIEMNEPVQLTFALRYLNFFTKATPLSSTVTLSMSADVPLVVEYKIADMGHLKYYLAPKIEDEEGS

Consider “ENO1 F423A (from UniProt P06733 1-434) (enzyme)”, for which the percent reduction of the interaction against WT ENO1 is 80 to 90%.

Values taken from publication PMC9937922.
